According to patent US20240261333A1 (published 2024):

Experiments:
[1] = biological target: T1, FLAG tagged B3GNT2 (N- or C-terminal FLAG tag) (human, UniProt Q9NY97 1-397); assay: co-IP of FLAG tagged B3GNT2 from A375 lysate, Western blot
T1 construct: The text speaks of the co-IP of B3GNT2 without separating the N-FLAG and C-FLAG constructs, so both are held as one molecule; also called N-FLAG B3GNT2; C-FLAG B3GNT2; not shown: FLAG tag at the N- or the C-terminus
T1 sequence (looked up): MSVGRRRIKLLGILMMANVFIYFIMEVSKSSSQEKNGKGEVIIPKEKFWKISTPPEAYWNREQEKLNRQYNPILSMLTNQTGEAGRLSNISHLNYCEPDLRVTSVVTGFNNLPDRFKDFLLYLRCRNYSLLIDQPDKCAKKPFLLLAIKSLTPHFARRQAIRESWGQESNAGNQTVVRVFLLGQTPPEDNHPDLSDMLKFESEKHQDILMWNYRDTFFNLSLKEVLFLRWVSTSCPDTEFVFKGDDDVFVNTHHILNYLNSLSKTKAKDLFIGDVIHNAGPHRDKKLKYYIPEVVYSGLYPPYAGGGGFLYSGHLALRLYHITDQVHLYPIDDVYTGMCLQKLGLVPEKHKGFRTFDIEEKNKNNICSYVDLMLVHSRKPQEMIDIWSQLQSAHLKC
Procedure: (§1) Cells were plated in 10-cm cell culture dishes and grown to 60-80% confluency. For each condition, two biological replicates were harvested for co-IP. Cells were washed with PBS and 4 mL of lysis buffer (20 mM HEPES, 1% Triton X-100, 150 mM NaCl, 1 mM EDTA, and 10% glycerol) containing protease inhibitor cocktail was added. Cells were scraped and lysate was incubated at 4° C. under rotary agitation for 1 h. Lysate was centrifuged at 14,000×g for 10 min at 4° C. Supernatant was transferred to a new tube and an aliquot was taken as the input. […] For Western blots, 10 μg/mL Chicken Anti-FLAG (Aves labs ET-DY100) and IgY control (R&D Systems AB-101-C) antibodies were biotinylated (Thermo Fisher Scientific 90407) and added to the respective conditions. Lysates with antibodies were incubated at 4° C. under rotary agitation overnight. For each mL of lysate, 50 μL of Pierce Protein A/G Magnetic Beads (Mass spectrometry; Thermo Fisher Scientific 88803) or Pierce Streptavidin Magnetic Beads (Western blot; Thermo Fisher Scientific 88817) was washed twice with lysis buffer. Lysates with antibodies were added to the beads and incubated at 4° C. under rotary agitation for 4 h. Beads were washed with lysis buffer 3 times and resuspended in lysis buffer for storage.

CPSF6 = biological target: T2, CPSF6 (human, UniProt Q16630-2 1-588, limits assumed); assay: co-IP with mouse anti-FLAG from lysate of cells overexpressing C-FLAG B3GNT2, then mass spectrometry
T2 construct: Identified by mass spectrometry in the co-IP; also called NP_001287876.1 (+3)
T2 sequence (looked up): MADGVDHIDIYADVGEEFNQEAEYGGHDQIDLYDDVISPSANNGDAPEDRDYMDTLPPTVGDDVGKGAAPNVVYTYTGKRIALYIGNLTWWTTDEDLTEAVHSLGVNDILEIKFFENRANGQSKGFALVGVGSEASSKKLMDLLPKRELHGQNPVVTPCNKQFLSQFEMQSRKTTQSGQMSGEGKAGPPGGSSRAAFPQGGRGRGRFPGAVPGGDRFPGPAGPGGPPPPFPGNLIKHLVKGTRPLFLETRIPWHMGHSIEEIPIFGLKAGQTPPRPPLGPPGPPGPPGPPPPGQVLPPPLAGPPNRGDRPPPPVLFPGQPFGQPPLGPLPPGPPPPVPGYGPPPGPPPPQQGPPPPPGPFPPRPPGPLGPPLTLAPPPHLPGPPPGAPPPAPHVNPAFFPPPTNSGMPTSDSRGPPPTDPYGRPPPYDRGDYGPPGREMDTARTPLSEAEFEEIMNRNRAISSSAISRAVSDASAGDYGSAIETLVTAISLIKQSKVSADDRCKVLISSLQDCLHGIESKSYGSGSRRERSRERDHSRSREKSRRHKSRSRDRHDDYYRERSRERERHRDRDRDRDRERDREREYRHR
Procedure: as §1
(§2) Magnetic beads were resuspended in 100 mM Tris pH 7.8, reduced, alkylated and digested with trypsin at 37° ° C. overnight. This solution was subjected to solid phase extraction to concentrate the peptides and remove unwanted reagents followed by injection onto a Shimadzu HPLC with fraction collector. Eight fractions were collected and after concentration were injected on a Waters NanoAcquity HPLC equipped with a self-packed Aeris 3 μm C18 analytical column 0.075 mm by 20 cm, (Phenomenex). Peptides were eluted using standard reverse-phase gradients. The effluent from the column was analyzed using a Thermo Orbitrap Elite mass spectrometer (nanospray configuration) operated in a data dependent manner for 54 minutes. The resulting fragmentation spectra were correlated against the known database using Proteome Discover 1.4 (Thermo Fisher Scientific).

KHDRBS1 = biological target: T3, KHDRBS1 (human, UniProt Q07666 1-443); assay: as above
T3 construct: Identified by mass spectrometry in the co-IP; also called NP_006550.1
Procedure: as §1, §2

ANXA2 = biological target: T4, ANXA2 (human, UniProt P07355-2 1-357, limits assumed); assay: as above
T4 construct: Identified by mass spectrometry in the co-IP; also called NP_001002858.1 (+1)
Procedure: as §1, §2

CASC3 = biological target: T5, CASC3 (human, UniProt O15234 1-703); assay: as above
T5 construct: Identified by mass spectrometry in the co-IP; also called NP_031385.2
Procedure: as §1, §2

VIM = biological target: T6, VIM (human, UniProt P08670 2-466); assay: as above
T6 construct: Identified by mass spectrometry in the co-IP; also called NP_003371.2
Procedure: as §1, §2

CAPRIN1 = biological target: T7, CAPRIN1 (human, UniProt Q14444 2-709); assay: as above
T7 construct: Identified by mass spectrometry in the co-IP; also called NP_005889.3 (+1)
T7 sequence (looked up): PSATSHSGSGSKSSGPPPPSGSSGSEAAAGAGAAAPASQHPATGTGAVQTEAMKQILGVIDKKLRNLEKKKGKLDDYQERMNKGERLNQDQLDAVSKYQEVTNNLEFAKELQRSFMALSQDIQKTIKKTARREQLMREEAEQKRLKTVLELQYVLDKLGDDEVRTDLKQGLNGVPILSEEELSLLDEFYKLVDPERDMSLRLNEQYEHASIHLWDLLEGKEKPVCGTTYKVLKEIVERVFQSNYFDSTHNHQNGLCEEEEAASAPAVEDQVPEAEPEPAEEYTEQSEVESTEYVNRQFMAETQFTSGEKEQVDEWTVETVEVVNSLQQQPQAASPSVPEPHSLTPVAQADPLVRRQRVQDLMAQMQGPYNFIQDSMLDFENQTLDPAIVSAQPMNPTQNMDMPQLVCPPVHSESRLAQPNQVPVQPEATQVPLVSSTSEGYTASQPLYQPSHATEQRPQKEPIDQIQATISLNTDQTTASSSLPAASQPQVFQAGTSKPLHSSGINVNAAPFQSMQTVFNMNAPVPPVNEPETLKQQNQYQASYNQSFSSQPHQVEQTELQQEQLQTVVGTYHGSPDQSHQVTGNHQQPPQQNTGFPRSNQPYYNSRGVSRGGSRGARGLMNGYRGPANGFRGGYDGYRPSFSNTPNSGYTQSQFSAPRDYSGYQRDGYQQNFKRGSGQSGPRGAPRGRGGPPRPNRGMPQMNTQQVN
Procedure: as §1, §2

PABPC1 = biological target: T8, PABPC1 (human, UniProt P11940 1-636); assay: as above
T8 construct: Identified by mass spectrometry in the co-IP; also called NP_002559.2
Procedure: as §1, §2

T6 sequence (P08670 2-466 limits assumed): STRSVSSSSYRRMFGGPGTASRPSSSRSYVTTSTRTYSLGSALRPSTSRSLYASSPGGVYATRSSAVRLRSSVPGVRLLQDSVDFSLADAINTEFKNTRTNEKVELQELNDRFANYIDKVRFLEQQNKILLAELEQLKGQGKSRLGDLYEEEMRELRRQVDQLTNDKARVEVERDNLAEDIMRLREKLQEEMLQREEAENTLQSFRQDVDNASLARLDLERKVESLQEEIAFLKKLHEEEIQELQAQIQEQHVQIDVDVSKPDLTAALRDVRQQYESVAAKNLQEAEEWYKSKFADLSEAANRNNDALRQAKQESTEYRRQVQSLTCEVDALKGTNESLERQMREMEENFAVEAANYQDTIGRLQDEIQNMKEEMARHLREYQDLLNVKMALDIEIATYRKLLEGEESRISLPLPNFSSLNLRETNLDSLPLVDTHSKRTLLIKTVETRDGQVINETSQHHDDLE
T5 sequence (O15234 whole entry): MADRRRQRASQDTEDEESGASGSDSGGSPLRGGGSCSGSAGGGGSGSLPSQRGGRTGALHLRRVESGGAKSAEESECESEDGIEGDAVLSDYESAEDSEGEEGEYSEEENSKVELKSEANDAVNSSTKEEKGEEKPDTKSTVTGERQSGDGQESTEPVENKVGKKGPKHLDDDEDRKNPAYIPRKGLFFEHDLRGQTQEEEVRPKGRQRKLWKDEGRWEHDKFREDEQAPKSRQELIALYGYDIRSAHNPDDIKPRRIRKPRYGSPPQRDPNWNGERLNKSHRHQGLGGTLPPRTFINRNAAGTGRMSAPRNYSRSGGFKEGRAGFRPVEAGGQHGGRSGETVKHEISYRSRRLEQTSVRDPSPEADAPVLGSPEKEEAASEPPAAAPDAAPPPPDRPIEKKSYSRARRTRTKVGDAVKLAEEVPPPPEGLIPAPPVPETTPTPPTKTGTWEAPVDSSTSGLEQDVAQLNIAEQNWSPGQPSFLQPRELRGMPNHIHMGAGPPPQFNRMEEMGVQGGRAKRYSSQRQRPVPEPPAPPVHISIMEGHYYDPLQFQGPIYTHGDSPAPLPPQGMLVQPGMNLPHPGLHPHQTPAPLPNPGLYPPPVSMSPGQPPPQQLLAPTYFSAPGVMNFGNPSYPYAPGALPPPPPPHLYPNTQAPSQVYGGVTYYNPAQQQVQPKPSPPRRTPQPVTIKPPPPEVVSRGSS
T3 sequence (Q07666 whole entry): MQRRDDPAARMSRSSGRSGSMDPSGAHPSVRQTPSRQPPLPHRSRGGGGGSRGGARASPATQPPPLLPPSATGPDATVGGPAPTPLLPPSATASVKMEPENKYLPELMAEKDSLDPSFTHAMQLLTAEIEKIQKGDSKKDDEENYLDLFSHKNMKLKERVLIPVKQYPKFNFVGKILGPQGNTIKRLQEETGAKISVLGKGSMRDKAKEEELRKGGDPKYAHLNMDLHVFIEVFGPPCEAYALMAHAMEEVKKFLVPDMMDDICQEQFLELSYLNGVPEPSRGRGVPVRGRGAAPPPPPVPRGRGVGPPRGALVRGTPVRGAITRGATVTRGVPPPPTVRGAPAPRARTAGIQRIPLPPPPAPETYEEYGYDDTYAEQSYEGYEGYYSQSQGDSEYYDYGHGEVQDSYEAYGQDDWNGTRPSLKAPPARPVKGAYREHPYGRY
T4 sequence (P07355 other isoform, or with tags, fused parts or gaps limits assumed): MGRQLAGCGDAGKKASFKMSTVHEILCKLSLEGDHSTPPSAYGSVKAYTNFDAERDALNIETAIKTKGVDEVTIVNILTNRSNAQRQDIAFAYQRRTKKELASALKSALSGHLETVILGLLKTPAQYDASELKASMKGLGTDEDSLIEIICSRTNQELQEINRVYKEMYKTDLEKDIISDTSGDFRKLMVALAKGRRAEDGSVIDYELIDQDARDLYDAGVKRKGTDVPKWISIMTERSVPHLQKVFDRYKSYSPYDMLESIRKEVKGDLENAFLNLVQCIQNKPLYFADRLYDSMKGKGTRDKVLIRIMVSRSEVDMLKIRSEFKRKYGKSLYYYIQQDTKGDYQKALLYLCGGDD
T8 sequence (P11940 whole entry): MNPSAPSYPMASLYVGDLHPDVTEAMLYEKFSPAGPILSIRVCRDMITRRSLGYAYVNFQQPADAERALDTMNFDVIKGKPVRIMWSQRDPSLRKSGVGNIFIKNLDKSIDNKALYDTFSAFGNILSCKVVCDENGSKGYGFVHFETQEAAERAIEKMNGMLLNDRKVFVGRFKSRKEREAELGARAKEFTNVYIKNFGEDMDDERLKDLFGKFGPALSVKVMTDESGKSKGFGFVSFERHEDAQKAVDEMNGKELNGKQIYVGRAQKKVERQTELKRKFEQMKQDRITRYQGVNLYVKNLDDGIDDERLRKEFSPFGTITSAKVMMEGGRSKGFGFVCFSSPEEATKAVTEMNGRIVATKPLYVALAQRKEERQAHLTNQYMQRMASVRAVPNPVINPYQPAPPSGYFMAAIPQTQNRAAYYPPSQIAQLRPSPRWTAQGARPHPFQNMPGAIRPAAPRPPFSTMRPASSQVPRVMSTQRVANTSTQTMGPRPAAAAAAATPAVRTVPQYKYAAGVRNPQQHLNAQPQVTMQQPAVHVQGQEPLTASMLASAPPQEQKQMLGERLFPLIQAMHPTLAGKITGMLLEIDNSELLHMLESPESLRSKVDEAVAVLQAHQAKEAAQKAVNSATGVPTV

B1: FAS, endogenous in A375 melanoma cells (receptor, human, UniProt P25445 26-335, looked up)
chain: QVTDINSKGLELRKTVTTVETQNLEGLHHDGQFCHKPCPPGERKARDCTVNGDEPDCVPCQEGKEYTDKAHFSSKCRRCRLCDEGHGLEVEINCTRTQNTKCRCKPNFFCNSTVCEHCDPCTKCEHGIIKECTLTSNTKCKEEGSRSNLGWLCLLLLPIPLIVWVKRKEVQKTCRKHRKENQGSHESPTLNPETVAINLSDVDLSKYITTIAGVMTLSQVKGFVRKNGVNEAKIDEIKNDNVQDTAEQKVQLLRNWHQLHGKKEAYDTLIKDLKKANLCTLAEKIQTIILKDITSDSENSNFRNEIQSLV
modifications: poly-LacNAc glycosylation added by B3GNT2 (sites not given)
notes: whole, on cells; In the co-IP it comes from the lysate of A375 cells; also called Fas receptor
[1]
  binding result: binds

B2: CD58, endogenous in A375 melanoma cells (ligand, human, UniProt P19256 29-250, looked up)
chain: FSQQIYGVVYGNVTFHVPSNVPLKEVLWKKQKDKVAELENSEFRAFSSFKNRVYLDTVSGSLTIYNLTSSDEDEYEMESPNITDTMKFFLYVLESLPSPTLTCALTNGSIEVQCMIPEHYNSHRGLIMYSWDCPMEQCKRNSTSIYFKMENDLPQKIQCTLSNPLFNTTSSIILTTCIPSSGHSRHRYALIPIPLAVITTCIVLYMNGILKCDRKPDRTNSN
modifications: poly-LacNAc glycosylation added by B3GNT2 (sites not given)
notes: whole, on cells; On fixed A375 cells in flow cytometry; In the co-IP it comes from the lysate of these cells
[1]
  binding result: binds

B3: MICB, endogenous in A375 melanoma cells (ligand, human, UniProt Q29980 23-383, looked up)
chain: AEPHSLRYNLMVLSQDGSVQSGFLAEGHLDGQPFLRYDRQKRRAKPQGQWAENVLGAKTWDTETEDLTENGQDLRRTLTHIKDQKGGLHSLQEIRVCEIHEDSSTRGSRHFYYDGELFLSQNLETQESTVPQSSRAQTLAMNVTNFWKEDAMKTKTHYRAMQADCLQKLQRYLKSGVAIRRTVPPMVNVTCSEVSEGNITVTCRASSFYPRNITLTWRQDGVSLSHNTQQWGDVLPDGNGTYQTWVATRIRQGEEQRFTCYMEHSGNHGTHPVPSGKALVLQSQRTDFPYVSAAMPCFVIIIILCVPCCKKKTSAAEGPELVSLQVLDQHPVGTGDHRDAAQLGFQPLMSATGSTGSTEGT
modifications: poly-LacNAc glycosylation added by B3GNT2 (sites not given)
notes: as for B2
[1]
  binding result: binds

B4: IFNGR2, endogenous in A375 melanoma cells (receptor, human, UniProt P38484 22-337, looked up)
chain: APPDPLSQLPAPQHPKIRLYNAEQVLSWEPVALSNSTRPVVYQVQFKYTDSKWFTADIMSIGVNCTQITATECDFTAASPSAGFPMDFNVTLRLRAELGALHSAWVTMPWFQHYRNVTVGPPENIEVTPGEGSLIIRFSSPFDIADTSTAFFCYYVHYWEKGGIQQVKGPFRSNSISLDNLKPSRVYCLQVQAQLLWNKSNIFRVGHLSNISCYETMADASTELQQVILISVGTFSLLSVLAGACFFLVLKYRGLIKYWFHTPPSIPLQIEEYLKDPTQPILEALDKDSSPKDDVWDSVSIISFPEKEQEDVLQTL
modifications: poly-LacNAc glycosylation added by B3GNT2 (sites not given)
notes: whole, on cells; In the co-IP it comes from the lysate of A375 cells
[1]
  binding result: binds

B5: CD70, endogenous in A375 melanoma cells (ligand, human, UniProt P32970 1-193, looked up)
chain: MPEEGSGCSVRRRPYGCVLRAALVPLVAGLVICLVVCIQRFAQAQQQLPLESLGWDVAELQLNHTGPQQDPRLYWQGGPALGRSFLHGPELDKGQLRIHRDGIYMVHIQVTLAICSSTTASRHHPTTLAVGICSPASRSISLLRLSFHQGCTIASQRLTPLARGDTLCTNLTGTLLPSRNTDETFFGVQWVRP
modifications: poly-LacNAc glycosylation added by B3GNT2 (sites not given)
notes: as for B4
[1]
  binding result: binds

B6: C-terminal FLAG tagged B3GNT2 (enzyme, human, UniProt Q9NY97 1-397, looked up)
chain: MSVGRRRIKLLGILMMANVFIYFIMEVSKSSSQEKNGKGEVIIPKEKFWKISTPPEAYWNREQEKLNRQYNPILSMLTNQTGEAGRLSNISHLNYCEPDLRVTSVVTGFNNLPDRFKDFLLYLRCRNYSLLIDQPDKCAKKPFLLLAIKSLTPHFARRQAIRESWGQESNAGNQTVVRVFLLGQTPPEDNHPDLSDMLKFESEKHQDILMWNYRDTFFNLSLKEVLFLRWVSTSCPDTEFVFKGDDDVFVNTHHILNYLNSLSKTKAKDLFIGDVIHNAGPHRDKKLKYYIPEVVYSGLYPPYAGGGGFLYSGHLALRLYHITDQVHLYPIDDVYTGMCLQKLGLVPEKHKGFRTFDIEEKNKNNICSYVDLMLVHSRKPQEMIDIWSQLQSAHLKC
notes: FLAG-tagged ORF overexpressed in A375 cells; bait of the co-IP with mouse anti-FLAG; also called C-FLAG B3GNT2; C-term flag; not shown: C-terminal FLAG tag
CPSF6
  co-IP mass spectrometry count (C-term flag): 35
KHDRBS1
  co-IP mass spectrometry count (C-term flag): 9
ANXA2
  co-IP mass spectrometry count (C-term flag): 15
CASC3
  co-IP mass spectrometry count (C-term flag): 0
VIM
  co-IP mass spectrometry count (C-term flag): 411
CAPRIN1
  co-IP mass spectrometry count (C-term flag): 6
PABPC1
  co-IP mass spectrometry count (C-term flag): 41
